Laboratory results from the supplement of paper PMC10126150.
± gives the standard deviation of the averaged measurements.

Test system: ATP
Assay: switch fluorescence ratio, 500 uM ATP over buffer (Cy3 cluster intensity, sum of 5 cycles each) (fold (ratio)); higher = stronger signal-on switching upon ATP binding; sequences stand for … in TCGTCGGCAGCGTCAGATGTGTATAAGAGACAGTTTTTTTTTTTTTTTTTTTTTTTTT…TC
Details: aptamer strand: ATP DNA aptamer (quencher-CACCTGGGGGAGTATTGCGGAGGAAGG + anchor), 100 nM annealed; ATP concentration: 500 uM
Method in brief: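 The quencher-labelled ATP aptamer, at 100 nM, was annealed to Cy3-labelled switching-strand clusters on a modified Illumina MiSeq flow-cell. The clusters were imaged in selection buffer, then after 15 min with 500 uM ATP at 22 °C, and this buffer/ATP cycle ran five times with NaOH stripping and re-annealing between runs. Per-cluster fluorescence ratios, summed target-cycle over summed buffer-cycle Cy3 intensity, were averaged per switch-domain sequence. Clusters outside 100-1000 RFU were excluded.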
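Also: ATP exposure 15 min at 22 °C before imaging.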

Sequence	switch fluorescence ratio
GGGGAAAGTT	0.988 ± 0.043
GGGGAACAGT	0.979 ± 0.043
GGGGAAGGAA	0.998 ± 0.027
GGGGAAGGAG	0.977 ± 0.029
GGGGAAGGGT	1.08 ± 0.23
GGGGAAGTAT	0.985 ± 0.014
GGGGAATAGT	1.26 ± 0.32
GGGGAATCCT	1.036 ± 0.0077
GGGGAATCGT	0.948 ± 0.027
GGGGACACAG	0.979 ± 0.015
GGGGACCAAC	1.03 ± 0.021
GGGGACCATT	1.01 ± 0.035
GGGGACCTAG	1.01 ± 0.015
GGGGACGATA	1 ± 0.053
GGGGACGTCG	0.9972 ± 0.0087
GGGGACTCTT	0.977 ± 0.023
GGGGAGAGAA	0.9855 ± 0.0071
GGGGAGAGAT	0.999 ± 0.064
GGGGAGAGGC	1.08 ± 0.11
GGGGAGAGGT	1 ± 0.067
GGGGAGTGCT	0.9872 ± 0.004
GGGGAGTGGG	0.989 ± 0.051
GGGGATAGCG	1 ± 0.018
GGGGATATCG	1.03 ± 0.024
GGGGATGTCT	1.03 ± 0.03

Sequence	switch fluorescence ratio
GGGGATTCAT	0.986 ± 0.012
GGGGATTGAT	1.02 ± 0.039
GGGGCAATAT	3.69 ± 1.9
GGGGCAATGT	1.22 ± 0.05
GGGGCAGCAG	1.02 ± 0.031
GGGGCAGGGA	0.98 ± 0.052
GGGGCATGTA	1 ± 0.019
GGGGCATTTG	0.9834 ± 0.0011
GGGGCCACGA	1.01 ± 0.014
GGGGCCACTG	1.02 ± 0.023
GGGGCCAGGG	1.04 ± 0.054
GGGGCCCTTG	0.97602 ± 9.7e-05
GGGGCCGTCA	0.987 ± 0.031
GGGGCGAACG	0.977 ± 0.04
GGGGCGAGGT	0.9974 ± 0.0041
GGGGCGCCTC	0.992 ± 0.03
GGGGCGGACT	0.952 ± 0.04
GGGGCGGATG	0.968 ± 0.013
GGGGCGGCTA	0.984 ± 0.029
GGGGCGGGA	1.08 ± 0.016
GGGGCTAGTT	0.963 ± 0.02
GGGGCTATAT	1.39 ± 0.62
GGGGCTGTGG	0.9933 ± 0.0087
GGGGCTTGCA	1.02 ± 0.019
GGGGCTTTTT	1 ± 0.036

Sequence	switch fluorescence ratio
GGGGGAACTA	0.989 ± 0.019
GGGGGAACTT	0.977 ± 0.032
GGGGGAAGAC	1.04 ± 0.053
GGGGGAAGCT	1.03 ± 0.05
GGGGGAAGGT	0.982 ± 0.032
GGGGGAAGTC	1.01 ± 0.034
GGGGGAATAA	1.54 ± 0.73
GGGGGAATAG	1.05 ± 0.046
GGGGGAATGG	1.11 ± 0.17
GGGGGAATGT	0.983 ± 0.026
GGGGGAATTG	1.02 ± 0.075
GGGGGAATTT	0.993 ± 0.028
GGGGGACCGA	1.02 ± 0.023
GGGGGACGCT	0.972 ± 0.039
GGGGGACTTC	1.005 ± 0.01
GGGGGAGAGA	1.03 ± 0.064
GGGGGAGGAA	0.978 ± 0.026
GGGGGAGGCA	0.966 ± 0.032
GGGGGAGTGA	0.972 ± 0.029
GGGGGAGTTC	1.02 ± 0.014
GGGGGATACG	0.997 ± 0.033
GGGGGATATA	1.01 ± 0.021
GGGGGATCGG	1.01 ± 0.022
GGGGGATGCG	1 ± 0.048
GGGGGATGGA	1.0016 ± 0.0002

Sequence	switch fluorescence ratio
GGGGGATTAA	1 ± 0.017
GGGGGCACAG	0.992 ± 0.012
GGGGGCAGAA	0.983 ± 0.018
GGGGGCATAA	1.03 ± 0.076
GGGGGCATGG	1 ± 0.02
GGGGGCATTG	0.9933 ± 0.0084
GGGGGCCAGG	1.02 ± 0.073
GGGGGCGGCT	1.03 ± 0.056
GGGGGCGGTG	1 ± 0.038
GGGGGCTATA	1.001 ± 0.0094
GGGGGCTCAG	0.9659 ± 0.0052
GGGGGCTTAT	1.01 ± 0.017
GGGGGGAACG	0.971 ± 0.024
GGGGGGAAGT	1.01 ± 0.022
GGGGGGAATT	1.05 ± 0.1
GGGGGGACAC	1.031 ± 0.0019
GGGGGGAGAG	0.989 ± 0.045
GGGGGGAGTT	0.999 ± 0.038
GGGGGGATAG	1 ± 0.031
GGGGGGATGG	1.07 ± 0.23
GGGGGGATTC	1.01 ± 0.019
GGGGGGCAAC	1.03 ± 0.099
GGGGGGCAGC	1 ± 0.017
GGGGGGCATA	1.01 ± 0.012
GGGGGGCCCA	1.0208 ± 0.00082

Sequence	switch fluorescence ratio
GGGGGGCCCG	1.35 ± 0.45
GGGGGGCCGA	1.01 ± 0.03
GGGGGGCCTA	0.988 ± 0.046
GGGGGGCGGC	1.01 ± 0.046
GGGGGGCTCG	0.973 ± 0.064
GGGGGGCTGT	0.973 ± 0.047
GGGGGGCTTC	0.975 ± 0.019
GGGGGGGATA	1 ± 0.038
GGGGGGGCAC	1.01 ± 0.029
GGGGGGGGG	1 ± 0.04
GGGGGGGTAA	0.993 ± 0.027
GGGGGGGTCC	0.99 ± 0.025
GGGGGGGTCT	0.973 ± 0.044
GGGGGGTAA	1.01 ± 0.019
GGGGGGTAAA	1.04 ± 0.075
GGGGGGTACC	1.08 ± 0.13
GGGGGGTAGG	1.01 ± 0.029
GGGGGGTCAG	1.01 ± 0.025
GGGGGGTCTC	0.996 ± 0.029
GGGGGGTGTA	1 ± 0.055
GGGGGGTTAA	1.02 ± 0.028
GGGGGGTTGG	0.989 ± 0.031
GGGGGTAAGG	0.987 ± 0.034
GGGGGTACAC	1.01 ± 0.025
GGGGGTACGT	0.989 ± 0.03

Sequence	switch fluorescence ratio
GGGGGTATGG	0.983 ± 0.032
GGGGGTATGT	0.997 ± 0.02
GGGGGTCAGC	1 ± 0.025
GGGGGTCG	1.03 ± 0.081
GGGGGTCGCG	0.991 ± 0.034
GGGGGTCGGG	1 ± 0.036
GGGGGTGCAG	0.975 ± 0.011
GGGGGTGGG	1.03 ± 0.069
GGGGGTGTCA	0.968 ± 0.0099
GGGGGTTACG	0.998 ± 0.03
GGGGGTTAGA	1 ± 0.035
GGGGGTTATA	0.965 ± 0.016
GGGGGTTCCG	0.98 ± 0.021
GGGGGTTGCA	0.965 ± 0.016
GGGGGTTGGG	1.01 ± 0.043
GGGGGTTTAA	1.02 ± 0.014
GGGGGTTTGC	0.991 ± 0.059
GGGGGTTTTG	0.993 ± 0.038
GGGGTAAGGG	1 ± 0.028
GGGGTAAGGT	0.99 ± 0.036
GGGGTAATCA	0.999 ± 0.018
GGGGTAATCC	1.07 ± 0.14
GGGGTAATGG	0.993 ± 0.034
GGGGTACGTA	1 ± 0.08
GGGGTACGTT	1 ± 0.032

Sequence	switch fluorescence ratio
GGGGTACTAC	1.003 ± 0.0053
GGGGTAGCCT	1 ± 0.04
GGGGTAGGTG	1.08 ± 0.068
GGGGTAGTGG	0.981 ± 0.05
GGGGTAGTTT	1.02 ± 0.027
GGGGTCACGG	1.006 ± 0.0027
GGGGTCAGCC	1.06 ± 0.13
GGGGTCCAAG	1 ± 0.017
GGGGTCGACG	1.033 ± 0.0092
GGGGTCGGGC	0.998 ± 0.015
GGGGTCGGTT	1.01 ± 0.051
GGGGTGAATG	0.974 ± 0.04
GGGGTGACGG	1.004 ± 0.0055
GGGGTGAGGG	0.971 ± 0.032
GGGGTGAGTT	0.931 ± 0.072
GGGGTGATCT	1.02 ± 0.034
GGGGTGATGC	1.07 ± 0.061
GGGGTGATGG	1.02 ± 0.02
GGGGTGATGT	0.9803 ± 0.0066
GGGGTGCTAT	1.01 ± 0.043
GGGGTGGCCA	0.99 ± 0.0098
GGGGTGGGCG	1.01 ± 0.058
GGGGTGGTTA	0.9948 ± 0.005
GGGGTGTCGG	1.05 ± 0.14
GGGGTGTGTG	0.986 ± 0.021

Sequence	switch fluorescence ratio
GGGGTGTTTG	0.981 ± 0.022
GGGGTTAAAA	0.973 ± 0.024
GGGGTTAAGG	0.978 ± 0.029
GGGGTTAAGT	0.98 ± 0.014
GGGGTTAATA	1 ± 0.067
GGGGTTACGC	1.03 ± 0.059
GGGGTTAGGA	0.979 ± 0.019
GGGGTTATGT	0.979 ± 0.021
GGGGTTATTT	0.988 ± 0.038
GGGGTTCAGC	0.978 ± 0.038
GGGGTTCCGG	0.941 ± 0.032
GGGGTTCTGA	0.974 ± 0.032
GGGGTTGGAA	0.9873 ± 0.0056
GGGGTTGGG	1.015 ± 0.0031
GGGGTTGGGC	1 ± 0.028
GGGGTTGTAA	0.9938 ± 0.0056
GGGGTTTACT	1.01 ± 0.021
GGGGTTTGCT	0.973 ± 0.033
GGGGTTTGTA	0.98 ± 0.027
GGGGTTTTCC	1.01 ± 0.014
GGGGTTTTTA	0.995 ± 0.034
GGGTAAGATG	0.992 ± 0.016
GGGTAAGGTG	1.3 ± 0.091
GGGTAAGGTT	0.985 ± 0.028
GGGTAAGTTG	0.962 ± 0.05
